Experimental data from patent EP4713368A1 (dated 2026).

B1: Ab No. 9 (antibody, V domains shown)
VH: QVQLVQSGAEVKKPGSSVKVSCKASGGTFSSYAISWVRQAPGQGLEWMGGIIPISGTANYAQKFQGRVTITADESTSTAYMELSSLRSEDTAVYYCALGRWLTEAQWGQGTLVTVSS
VL: not shown
notes: IgG format
B2: Ab No. 8 (antibody, V domains shown)
VH: QVQLVQSGAEVKKPGSSVKVSCKASGGTFSSYAISWVRQAPGQGLEWMGGIIPISGTANYAQKFQGRVTITADESTSTAYMELSSLRSEDTAVYYCAKTRTVAYPGSDWGQGTLVTVSS
VL: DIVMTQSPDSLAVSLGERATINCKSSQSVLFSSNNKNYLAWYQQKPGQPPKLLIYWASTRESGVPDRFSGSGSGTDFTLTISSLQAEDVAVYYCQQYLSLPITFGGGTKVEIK
notes: IgG format
B3: Ab No. 57 (antibody, V domains shown)
VH: QVQLQESGPGLVKPSETLSLTCTVSGGSISSYYWSWIRQPPGKGLEWIGSIYYSGSTNYNPSLKSRVTISVDTSKNQFSLKLSSVTAADTAVYYCARTEVGATRPREDFQHWGQGTLVTVSS
VL: QSVLTQPPSVSAAPGQKVTISCSGSSSNIGNNYVSWYQQLPGTAPKLLIYDNNKRPSGIPDRFSGSKSGTSATLGITGLQTGDEADYYCGTWDISLGWVFGGGTKLTVL
notes: IgG format
B4: Ab No. 21a (antibody, V domains shown)
VH: QVQLVQSGAEVKKPGSSVKVSCKASGGTFNAYAISWVRQAPGQGLEWMGGIIPISGTAAYAQKFQGRVTITADESTSTAYMELSSLRSEDTAVYYCTRDLGFGAIRDTWGQGTLVTVSS
VL: EIVLTQSPATLSLSPGERATLSCRASQSVSSYLAWFQQKPGQAPRLLIYDASNRATGIPARFSGSGSGTDFTLTISSLEPEDFAVYYCQQSLNLPITFGGGTKVEIK
notes: derived from Ab No. 21 by modifying VH CDRs, VL unchanged; IgG format
B5: Ab No. 21b (antibody, V domains shown)
VH: QVQLVQSGAEVKKPGSSVKVSCKASGGTFNAYAISWVRQAPGQGLEWMGGIIPISGTANYAQKFQGRVTITADESTSTAYMELSSLRSEDTAVYYCTRDLGFGAIRDTWGQGTLVTVSS
VL: EIVLTQSPATLSLSPGERATLSCRASQSVSSYLAWFQQKPGQAPRLLIYDASNRATGIPARFSGSGSGTDFTLTISSLEPEDFAVYYCQQSLNLPITFGGGTKVEIK
notes: as for B4
B6: Ab No. 21e (antibody, V domains shown)
VH: QVQLVQSGAEVKKPGSSVKVSCKASGGTFDNYAISWVRQAPGQGLEWMGGIIPISGTAIYAQKFQGRVTITADESTSTAYMELSSLRSEDTAVYYCTRDLGFGAIRDTWGQGTLVTVSS
VL: EIVLTQSPATLSLSPGERATLSCRASQSVSSYLAWFQQKPGQAPRLLIYDASNRATGIPARFSGSGSGTDFTLTISSLEPEDFAVYYCQQSLNLPITFGGGTKVEIK
notes: as for B4
B7: Ab No. 21d (antibody, V domains shown)
VH: QVQLVQSGAEVKKPGSSVKVSCKASGGTFSTYAISWVRQAPGQGLEWMGGIIPISGTANYAQKFQGRVTITADESTSTAYMELSSLRSEDTAVYYCTRDLGFGAIRDTWGQGTLVTVSS
VL: EIVLTQSPATLSLSPGERATLSCRASQSVSSYLAWFQQKPGQAPRLLIYDASNRATGIPARFSGSGSGTDFTLTISSLEPEDFAVYYCQQSLNLPITFGGGTKVEIK
notes: as for B4
B8: Ab No. 21c (antibody, V domains shown)
VH: QVQLVQSGAEVKKPGSSVKVSCKASGGTFSGYAISWVRQAPGQGLEWMGGIIPISATANYAQKFQGRVTITADESTSTAYMELSSLRSEDTAVYYCTRDLGFGAIRDTWGQGTLVTVSS
VL: EIVLTQSPATLSLSPGERATLSCRASQSVSSYLAWFQQKPGQAPRLLIYDASNRATGIPARFSGSGSGTDFTLTISSLEPEDFAVYYCQQSLNLPITFGGGTKVEIK
notes: as for B4
B9: Ab No. 21f (antibody, V domains shown)
VH: QVQLVQSGAEVKKPGSSVKVSCKASGGTFGGYAISWVRQAPGQGLEWMGGIIPISATAFYAQKFQGRVTITADESTSTAYMELSSLRSEDTAVYYCTRDLGFGAIRDTWGQGTLVTVSS
VL: EIVLTQSPATLSLSPGERATLSCRASQSVSSYLAWFQQKPGQAPRLLIYDASNRATGIPARFSGSGSGTDFTLTISSLEPEDFAVYYCQQSLNLPITFGGGTKVEIK
notes: as for B4
B10: Ab No. 28a (antibody, V domains shown)
VH: EVQLLESGGGLVQPGGSLRLSCAASGFTFGSYAMHWVRQAPGKGLEWVSAISGSGQSTDYADSVKGRFTISRDNSKNTLYLQMNSLRAEDTAVYYCVRGYRLVGILTGSHFDYWGQGTLVTVSS
VL: DIQMTQSPSTLSASVGDRVTITCRASQSIGSWLAWYQQKPGKAPKLLIYKASSLESGVPSRFSGSGSGTEFTLTISSLQPDDFATYYCQQYNILPPTFGGGTKVEIK
notes: derived from Ab No. 28 by modifying VH CDRs, VL unchanged; IgG format
B11: Ab No. 28e (antibody, V domains shown)
VH: EVQLLESGGGLVQPGGSLRLSCAASGFTFGRYAMSWVRQAPGKGLEWVSAISGDAGSTFYADSVKGRFTISRDNSKNTLYLQMNSLRAEDTAVYYCVRGYRLVGILTGSHFDYWGQGTLVTVSS
VL: DIQMTQSPSTLSASVGDRVTITCRASQSIGSWLAWYQQKPGKAPKLLIYKASSLESGVPSRFSGSGSGTEFTLTISSLQPDDFATYYCQQYNILPPTFGGGTKVEIK
notes: as for B10
B12: Ab No. 28b (antibody, V domains shown)
VH: EVQLLESGGGLVQPGGSLRLSCAASGFTFSKYQMSWVRQAPGKGLEWVSAISGTGESTDYADSVKGRFTISRDNSKNTLYLQMNSLRAEDTAVYYCVRGYRLVGILTGSHFDYWGQGTLVTVSS
VL: DIQMTQSPSTLSASVGDRVTITCRASQSIGSWLAWYQQKPGKAPKLLIYKASSLESGVPSRFSGSGSGTEFTLTISSLQPDDFATYYCQQYNILPPTFGGGTKVEIK
notes: as for B10
B13: Ab No. 28d (antibody, V domains shown)
VH: EVQLLESGGGLVQPGGSLRLSCAASGFTFDAYAMSWVRQAPGKGLEWVSAISGSGVRTYYADSVKGRFTISRDNSKNTLYLQMNSLRAEDTAVYYCVRGYRLVGILTGSHFDYWGQGTLVTVSS
VL: DIQMTQSPSTLSASVGDRVTITCRASQSIGSWLAWYQQKPGKAPKLLIYKASSLESGVPSRFSGSGSGTEFTLTISSLQPDDFATYYCQQYNILPPTFGGGTKVEIK
notes: as for B10
B14: Ab No. 28f (antibody, V domains shown)
VH: EVQLLESGGGLVQPGGSLRLSCAASGFTFSTYGMNWVRQAPGKGLEWVSAISGSGLNTYYADSVKGRFTISRDNSKNTLYLQMNSLRAEDTAVYYCVRGYRLVGILTGSHFDYWGQGTLVTVSS
VL: DIQMTQSPSTLSASVGDRVTITCRASQSIGSWLAWYQQKPGKAPKLLIYKASSLESGVPSRFSGSGSGTEFTLTISSLQPDDFATYYCQQYNILPPTFGGGTKVEIK
notes: as for B10
B15: Ab No. 28c (antibody, V domains shown)
VH: EVQLLESGGGLVQPGGSLRLSCAASGFPFSAYGMSWVRQAPGKGLEWVSAISGSGGNTDYADSVKGRFTISRDNSKNTLYLQMNSLRAEDTAVYYCVRGYRLVGILTGSHFDYWGQGTLVTVSS
VL: DIQMTQSPSTLSASVGDRVTITCRASQSIGSWLAWYQQKPGKAPKLLIYKASSLESGVPSRFSGSGSGTEFTLTISSLQPDDFATYYCQQYNILPPTFGGGTKVEIK
notes: as for B10

molecular target: T1, human CD28 (human, UniProt P10747 19-152, limits assumed); test: selection from yeast-presented synthetic human antibody libraries
T1 construct: also called Cluster of Differentiation 28; Tp44

Binding result, binds:
B1
B2
B3

molecular target: T1, human CD28; test: affinity maturation of CD28-binding antibodies (Example 10: Discovery of Additional Antibodies that Bind to CD28)

Binding result, binds:
B4
B5
B6
B7
B8
B9
B10
B11
B12
B13
B14
B15
